Read-outs that look alike come from different tables or passages of the source.
Legend:
[1] = target: p75 G247C/Δ250 mutant tagged with mEGFP (human); experiment: non-reducing SDS-PAGE of immunoprecipitated protein
[2] = target: p75 G247C mutant tagged with mEGFP (human) (UniProt P08138); experiment: as above
[3] = target: p75 Δ193/C257A/G266I mutant tagged with mEGFP (human); experiment: number and brightness
[4] = target: wild-type neurotrophin receptor p75 tagged with mEGFP (p75-EGFP) (human) (UniProt P08138); experiment: non-reducing SDS-PAGE of immunoprecipitated protein
[5] = target: wild-type neurotrophin receptor p75 tagged with mEGFP (p75-EGFP) (human) (UniProt P08138); experiment: number and brightness
[6] = target: wild-type neurotrophin receptor p75 tagged with mEGFP (p75-EGFP) (human) (UniProt P08138); experiment: non-reducing SDS-PAGE of immunoprecipitated protein; remark: listed apart in the source
[7] = target: wild-type neurotrophin receptor p75 tagged with mEGFP (p75-EGFP) (human) (UniProt P08138); experiment: photon-counting histogram
[8] = target: p75 C257A/G266I mutant tagged with mEGFP (human) (UniProt P08138); experiment: non-reducing SDS-PAGE of immunoprecipitated protein

Substance: p75 G247C/Δ250 mutant tagged with mEGFP (receptor)
- percent recovered as dimer [1]: 56%

Substance: p75 G247C mutant tagged with mEGFP (from UniProt P08138 29-427) (receptor)
- percent recovered as dimer [2]: 29%

Substance: p75 Δ193/C257A/G266I mutant tagged with mEGFP (receptor)
- stoichiometry N (molecules per oligomer) [3]: 2.9

Substance: wild-type neurotrophin receptor p75 tagged with mEGFP (p75-EGFP) (from UniProt P08138 29-427)
- percent recovered as dimer [4]: 6.9%
- average brightness normalised to EGFP, center of the TGN [5]: 6.9 x EGFP
- average brightness normalised to EGFP, periphery of the TGN [5]: 10.4 x EGFP
- stoichiometry N (molecules per oligomer) [5]: 8.8
- percent recovered as dimer [6]: 5.8%
- median brightness normalised to EGFP [7]: 1.71 x EGFP
- stoichiometry N [7]: 3
- stoichiometry N (EGFP molecules per complex) [7]: 1 to 5

Substance: p75 C257A/G266I mutant tagged with mEGFP (from UniProt P08138 29-427) (receptor)
- percent recovered as dimer [8]: 0.8%

Source: article PMC3681702
